# Assay results: publication PMC11574045, “A cofactor-induced repressive type of transcription factor condensation can be induced by synthetic peptides to suppress tumorigenesis” (The EMBO Journal, 2024)
# B1: PIAS2 (protein, UniProt O75928 1-621, looked up)
# E3 SUMO-protein ligase PIAS2: MADFEELRNMVSSFRVSELQVLLGFAGRNKSGRKHDLLMRALHLLKSGCSPAVQIKIRELYRRRYPRTLEGLSDLSTIKSSVFSLDGGSSPVEPDLAVAGIHSLPSTSVTPHSPSSPVGSVLLQDTKPTFEMQQPSPPIPPVHPDVQLKNLPFYDVLDVLIKPTSLVQSSIQRFQEKFFIFALTPQQVREICISRDFLPGGRRDYTVQVQLRLCLAETSCPQEDNYPNSLCIKVNGKLFPLPGYAPPPKNGIEQKRPGRPLNITSLVRLSSAVPNQISISWASEIGKNYSMSVYLVRQLTSAMLLQRLKMKGIRNPDHSRALIKEKLTADPDSEIATTSLRVSLMCPLGKMRLTIPCRAVTCTHLQCFDAALYLQMNEKKPTWICPVCDKKAAYESLILDGLFMEILNDCSDVDEIKFQEDGSWCPMRPKKEAMKVSSQPCTKIESSSVLSKPCSVTVASEASKKKVDVIDLTIESSSDEEEDPPAKRKCIFMSETQSSPTKGVLMYQPSSVRVPSVTSVDPAAIPPSLTDYSVPFHHTPISSMSSDLPGLDFLSLIPVDPQYCPPMFLDSLTSPLTASSTSVTTTSSHESSTHVSSSSSRSETGVITSSGSNIPDIISLD
# B2: PGR (protein, UniProt P06401 1-933, looked up)
# Progesterone receptor: MTELKAKGPRAPHVAGGPPSPEVGSPLLCRPAAGPFPGSQTSDTLPEVSAIPISLDGLLFPRPCQGQDPSDEKTQDQQSLSDVEGAYSRAEATRGAGGSSSSPPEKDSGLLDSVLDTLLAPSGPGQSQPSPPACEVTSSWCLFGPELPEDPPAAPATQRVLSPLMSRSGCKVGDSSGTAAAHKVLPRGLSPARQLLLPASESPHWSGAPVKPSPQAAAVEVEEEDGSESEESAGPLLKGKPRALGGAAAGGGAAAVPPGAAAGGVALVPKEDSRFSAPRVALVEQDAPMAPGRSPLATTVMDFIHVPILPLNHALLAARTRQLLEDESYDGGAGAASAFAPPRSSPCASSTPVAVGDFPDCAYPPDAEPKDDAYPLYSDFQPPALKIKEEEEGAEASARSPRSYLVAGANPAAFPDFPLGPPPPLPPRATPSRPGEAAVTAAPASASVSSASSSGSTLECILYKAEGAPPQQGPFAPPPCKAPGASGCLLPRDGLPSTSASAAAAGAAPALYPALGLNGLPQLGYQAAVLKEGLPQVYPPYLNYLRPDSEASQSPQYSFESLPQKICLICGDEASGCHYGVLTCGSCKVFFKRAMEGQHNYLCAGRNDCIVDKIRRKNCPACRLRKCCQAGMVLGGRKFKKFNKVRVVRALDAVALPQPVGVPNESQALSQRFTFSPGQDIQLIPPLINLLMSIEPDVIYAGHDNTKPDTSSSLLTSLNQLGERQLLSVVKWSKSLPGFRNLHIDDQITLIQYSWMSLMVFGLGWRSYKHVSGQMLYFAPDLILNEQRMKESSFYSLCLTMWQIPQEFVKLQVSQEEFLCMKVLLLLNTIPLEGLRSQTQFEEMRSSYIRELIKAIGLRQKGVVSSSQRFYQLTKLLDNLHDLVKQLHLYCLNTFIQSRALSVEFPEMMSEVIAAQLPKILAGMVKPLLFHKK
# B3: PIAS4 (protein, UniProt Q9JM05 2-507, looked up)
# E3 SUMO-protein ligase PIAS4: AAELVEAKNMVMSFRVSDLQMLLGFVGRSKSGLKHELVTRALQLVQFDCSPELFKKIKELYETRYAKKSAEPGPQAPRPLDPLALHSMPRTPLSGPTVDYPVLYGKYLNGLGRLPTKTLKPEVRLVKLPFFNMLDELLKPTELVPQSAEKLQESPCIFALTPRQVEMIRNSRELQPGVKAVQVVLRICYSDTSCPQEDQYPPNIAVKVNHSYCSVPGYYPSNKPGVEPKRPCRPINLTHLMYLSSATNRITVTWGNYGKSYSVALYLVRQLTSSDLLQRLKTIGVKHPELCKALVKEKLRLDPDSEIATTGVRVSLICPLVKMRLSVPCRAETCAHLQCFDAVFYLQMNEKKPTWMCPVCDKPAAYDQLIIDGLLSKILSECEGADEIEFLAEGSWRPIRAEKEPSCSPQGPILVLGTSDANGLAPASSTPGIGSGLSGPGSAGSGAGAAGSLENGKTGADVVDLTLDSSSSSEDEDEDEDDDEDEDEGPRPKRRCPFQKGLVPAC
# Tested on: HEK293FT cells transfected with TF library
# Assay: Screening of TF condensates based on fluorescent puncta
# Assay type: cell-based
# Settings: Figure 1B numerical data; TF library screen, one value per transcriptional factor
# Summary of the method: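 Puncta scoring used automated confocal imaging of fifty random fields per well, after anti-Flag or anti-GAL4 immunofluorescence (Alexa 488) in PFA-fixed cells. HEK293FT cells carried TF library plasmids delivered with PEI (1.6 μg/ml DNA). At 60 h they were switched for 12 h to glucose-containing or glucose-free medium.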
row,Molecule,Z score of condensed fraction
1,B1,-0.03329
2,B2,1.815
3,B3,-0.6594
